Assay results from paper PMC10154249, “Unique progerin C-terminal peptide ameliorates Hutchinson–Gilford progeria syndrome phenotype by rescuing BUBR1” (Nature Aging, 2023).

Legend:
IMR90 cells [1] = experiment: SA-β-gal staining of IMR90 cells (progerin, BUBR1, shBUBR1); assay type: cell-based, human; settings: Fig.1i
Method: SA-β-gal staining was performed as previously described. Cells were fixed in 0.5% glutaraldehyde for 15 min at room temperature, washed three times with PBS (pH 6.0) containing 1 mM MgCl2 and exposed overnight 37 °C to containing 1 mg ml^–1 5-bromo-4-chloro-3-indolyl-β-D-galactopyranoside (MCE, catalog no. HY-15934), 0.12 mM potassium ferrocyanide (Sigma, catalog no. P3289), 0.12 mM potassium ferricyanide (Sigma, catalog no. P8131) and 1 mM MgCl2 PBS buffer (pH 6.0). Cells were washed three times with H2O and observed under a microscope (OLYMPUS CKX53). SA-β-gal positive cells were quantified by investigators who were blinded to the identity of the analyzed cell.

IMR90 cells [2] = experiment: Ki67 immunofluorescence of IMR90 cells; assay type: cell-based, human; settings: Fig.1k, IMR90, Vector 67, 75, 60, P vs Vector: BUBR1 0.803, progerin 0.0018
Method: (§1) Immunofluorescence was performed as described previously. Cells were plated on cover slips in 12-well plates, left overnight before the treatment. Cells were fixed in 1% formaldehyde in culture medium for 10 min at 37 °C and permeabilized with 0.2% Triton X-100 in PBS for 10 min at room temperature. Cells were washed twice in PBS and blocked for 1 h with 5% BSA in PBS and then incubated with primary antibodies at 4 °C overnight, washed three times in PBS and incubated with secondary antibodies for 1 h at room temperature. Cell nuclei were counterstained with a 500 nM concentration of 4,6-diamidino-2-phenylindole (DAPI) (Sigma). Images were acquired by a fluorescence microscope (OLYMPUS FV-1000, Carl Zeiss LSM880 or Leica DMi8) and analyzed with software NIS-Elements AR v.5.0.1 (Nikon), FLUOVIEW v.4.2b (OLYMPUS), ZEN v.2.3 SP1 (Carl Zeiss) and Leica Application Suite X v.3.6.0.24 (Leica). Cells were quantified by investigators who were blinded to the identity of the analyzed cell.

[3] = test system: IMR90 and HGADFN003 cells; experiment: Metaphase chromosome spread assay, aneuploid cells; assay type: cell-based, human; settings: Fig.1p, IMR90, Vector 6, 5, 8
Method: For the metaphase chromosome spread assay, 1.5 × 10^6 cells were seeded in a 6 cm dish and incubated for 24 h with fresh medium. Then, colchicine was added to a final concentration of 0.2 μg ml^–1 and the cells were incubated at 37 °C for 2 h. After digestion, we collected and rinsed the cells with PBS. The cells were centrifuged at 160g for 10 min. Then, 1 M KCl was added to a final concentration of 0.075 mol l^–1 and the samples were incubated at 37 °C for 20 min. The cells were centrifuged, and the supernatant aspirated. The pellet was resuspended, and 1 ml methanol:glacial acetic acid (3:1) solution was added. The sample was rested at room temperature for 10 min. Then, the cells were centrifuged at 160g for 10 min. The supernatant was aspirated, and the pellet resuspended in 1 ml fixative for 30 min. The cells were centrifuged and the pellet was suspended in 1 ml fixative again for 30 min. The cells were centrifuged at 160g for 10 min and the supernatant aspirated. The pellet was then resuspended in a small volume of fixative (typically less than 500 μl) until the cell suspension appeared lightly milky. A small quantity of the cell suspension was held vertically in a pipette with the end about 10 cm above the slide. A single drop was released from this height onto the slide and allowed to air dry. The cells were then incubated with 500 nM of DAPI (Invitrogen) for 10 min. Slides were examined with an Olympus BX53 fluorescence microscope and the images were captured by using the Olympus IPP v.7.0 software. Aneuploid cells were quantified by investigators who were blinded to the identity of the analyzed cell.

PTBP1–BUBR1 mRNA 3′-UTR = experiment: RIP assay of PTBP1 and BUBR1 mRNA 3′-UTR in HEK-293T cells; assay type: cell-based; settings: Fig. 4n, PTBP1+progerin, P=0.0002 vs PTBP1
Method: RIP and RNA pulldown assays were performed as previously described. The RIP experiment was carried out using the EZ-Magna RIP Kit (Millipore, catalog no. 17-701). The coprecipitated RNAs were extracted through Trizol reagent and detected by RT-PCR. The primer sequences for PCR, synthesized by Comate Bioscience, were as follows:
BUBR1-3′UTR_fwd (5′-[…]-3′) and BUBR1-3′UTR_rev (5′- […]-3′).

[4] = test system: BUBR1 kinetochore localization in H1299 cells; experiment: Immunofluorescence, abnormal localization of BUBR1 in H1299 cells; assay type: cell-based; settings: Fig. 3h, H1299, Vector 7, 11, 14, P=0.0008 vs Vector
Method: as §1

BUBR1 = BUBR1 nuclear membrane localization in IMR90, HGADFN003 or H1299 cells; assay type: cell-based, human; settings: Fig. 2c
Method: as §1

B1: progerin (protein)
chain: METPSQRRATRSGAQASSTPLSPTRITRLQEKEDLQELNDRLAVYIDRVRSLETENAGLRLRITESEEVVSREVSGIKAAYEAELGDARKTLDSVAKERARLQLELSKVREEFKELKARNTKKEGDLIAAQARLKDLEALLNSKEAALSTALSEKRTLEGELHDLRGQVAKLEAALGEAKKQLQDEMLRRVDAENRLQTMKEELDFQKNIYSEELRETKRRHETRLVEIDNGKQREFESRLADALQELRAQHEDQVEQYKKELEKTYSAKLDNARQSAERNSNLVGAAHEELQQSRIRIDSLSAQLSQLQKQLAAKEAKLRDLEDSLARERDTSRRLLAEKEREMAEMRARMQQQLDEYQELLDIKLALDMEIHAYRKLLEGEEERLRLSPSPTSQRSRGRASSHSSQTQGGGSVTKKRKLESTESRSSFSQHARTSGRVAVEEVDEEGKFVRLRNKSNEDQSMGNWQIKRQNGDDPLLTYRFPPKFTLKAGQVVTIWAAGAGATHSPPTDLVWKAQNTWGCGNSLRTALINSTGEEVAMRKLVRSVTVVEDDEDEDGDDLLHHHHGSHCSSSGDPAEYNLRSRTVLCGTCGQPADKASASGSGAQSPQNCSIM
modifications: left off: GST, end not stated, kept
IMR90 cells [1]; Vector 2, 1, 2, P vs Vector: BUBR1 0.2302, progerin 0.0003, replicate 1
  Relative percentage of SA-β-gal positive cells: 40%
IMR90 cells [1]; Vector 2, 1, 2, P vs Vector: BUBR1 0.2302, progerin 0.0003, replicate 2
  Relative percentage of SA-β-gal positive cells: 50%
IMR90 cells [1]; Vector 2, 1, 2, P vs Vector: BUBR1 0.2302, progerin 0.0003, replicate 3
  Relative percentage of SA-β-gal positive cells: 39%
IMR90 cells [2]; replicate 1
  Relative percentage of Ki67 positive cells: 27%
IMR90 cells [2]; replicate 2
  Relative percentage of Ki67 positive cells: 31%
IMR90 cells [2]; replicate 3
  Relative percentage of Ki67 positive cells: 35%
[3]; replicate 1
  Relative percentage of aneuploid cells: 42%
[3]; replicate 2
  Relative percentage of aneuploid cells: 38%
[3]; replicate 3
  Relative percentage of aneuploid cells: 46%
PTBP1–BUBR1 mRNA 3′-UTR; replicate 1
  PTBP1 enrichment on BUBR1-3'UTR (2-ΔΔCt): 8.488
PTBP1–BUBR1 mRNA 3′-UTR; replicate 2
  PTBP1 enrichment on BUBR1-3'UTR (2-ΔΔCt): 7.488
PTBP1–BUBR1 mRNA 3′-UTR; replicate 3
  PTBP1 enrichment on BUBR1-3'UTR (2-ΔΔCt): 7.699
[4]; replicate 1
  Relative percentage of the number of abnormal localization cells of BUBR1: 38%
[4]; replicate 2
  Relative percentage of the number of abnormal localization cells of BUBR1: 37%
[4]; replicate 3
  Relative percentage of the number of abnormal localization cells of BUBR1: 32%

B2: mVenus-progerin (protein)
chain: B1 chain
modifications: left off: mVenus, end not stated, kept
BUBR1; mVenus 1, 2, 2, P<0.0001, replicate 1
  BUBR1 nuclear membrane localization of injected cells: 97%
BUBR1; mVenus 1, 2, 2, P<0.0001, replicate 2
  BUBR1 nuclear membrane localization of injected cells: 95%
BUBR1; mVenus 1, 2, 2, P<0.0001, replicate 3
  BUBR1 nuclear membrane localization of injected cells: 94%
